Each binder was assayed against acetylcholine receptor (assay: SPR, AchR immobilised, peptide 10 uM).

| Binder | Binding affinity (RU) |
| --- | --- |
| KKDHFR [6mer-1-607] | 22 |
| KKACMR [6mer-1-608] | 18 |
| RRENEK [6mer-1-628] | 23 |
| KKTSER [6mer-1-615] | 18 |
| KRPDNR [6mer-1-626] | 27 |
| KKHHER [6mer-1-610] | 27 |
| KKEWNK [6mer-1-601] | 27 |
| KKIDKR [6mer-1-619] | 23 |
| KKCPNR [6mer-1-622] | 18 |
| KKNTIK [6mer-1-616] | 31 |
| RREWFR [6mer-1-606] | 15 |
| KREDKK [6mer-1-625] | 33 |
| KRIMER [6mer-1-612] | 17 |
| KRIMKK [6mer-1-613] | 14 |
| RRKTAK [6mer-1-620] | 11 |
| RKCHVK [6mer-1-618] | 19 |
| KKPPAK [6mer-1-624] | 30 |
| KRHNVR [6mer-1-617] | 31 |
| RRTWWR [6mer-1-627] | 29 |
| KRPHFK [6mer-1-603] | 13 |
| KKNCHK [6mer-1-611] | 23 |
| RKNADR [6mer-1-605] | 20 |
| KKEEER [6mer-1-614] | 12 |
| RKNPVR [6mer-1-609] | 24 |
| RRMAGK [6mer-1-621] | 30 |
| RRTDWR [6mer-1-623] | 21 |
| RKAEKR [6mer-1-602] | 18 |
| KKFTKK [6mer-1-604] | 24 |

These binders were tested against acetylcholine receptor (assay: SPR, AchR immobilized on CM5 chip, peptide 10 uM).

| Binder | Binding affinity (RU) |
| --- | --- |
| KRIKEK [6mer-1-786] | 26 |
| RRPDAR [6mer-1-779] | 30 |
| KKESIK [6mer-1-787] | 16 |
| RRAWNK [6mer-1-797] | 22 |
| RKPDDK [6mer-1-791] | 13 |
| KKYPWR [6mer-1-775] | 12 |
| RKYEPK [6mer-1-794] | 11 |
| KKPNPK [6mer-1-790] | 12 |
| RKIPKK [6mer-1-788] | 22 |
| KRKDKK [6mer-1-792] | 30 |
| KRKCWR [6mer-1-780] | 24 |
| RRDCFR [6mer-1-798] | 18 |
| KKEMER [6mer-1-774] | 21 |
| RRHNHR [6mer-1-777] | 16 |
| KRTEIR [6mer-1-773] | 29 |
| KKTSIK [6mer-1-776] | 13 |
| KKMDIK [6mer-1-771] | 17 |
| KRNCAK [6mer-1-772] | 12 |
| KRMMPK [6mer-1-789] | 19 |
| KKCHMR [6mer-1-795] | 12 |
| KKTPNR [6mer-1-793] | 31 |
| RRDDFR [6mer-1-778] | 28 |
| RRHWDK [6mer-1-781] | 16 |
| KKNAWK [6mer-1-782] | 30 |
| KKFTPK [6mer-1-784] | 33 |
| KKNEFK [6mer-1-783] | 29 |
| KKTCER [6mer-1-785] | 19 |
| RRHAFK [6mer-1-796] | 28 |

— patent US20250011363A1, “OPTIMIZED SHORTENED PEPTIDE THAT BINDS TO ACETYLCHOLINE RECEPTOR, AND USE THEREOF” (SKINMED CO., LTD., priority 2021, published 2025)
